Measurements as given in patent US20220000982A1 (Novo Nordisk, published 2022).
*1 amine or outer side, *2 acyl side, *3 side chain or, on linkers, in order; H or OH if unused. Where no end group is shown, it is not given here. Side-chain parts run from the residue outwards. [ ]: non-standard residue; d: D form. The star is where a group is joined. C18 diacid = O=C(O)CCCCCCCCCCCCCCCCC(=O)*; γGlu = O=C(O)[C@H](CCC(=O)[*:2])N[*:1]; Nle = CCCC[C@H](N)C(=O)O; AEEA = NCCOCCOCC(=O)O; Aib = CC(C)(N)C(=O)O

T1: human GIP receptor (human, UniProt P48546 22-466)
T1 sequence (looked up): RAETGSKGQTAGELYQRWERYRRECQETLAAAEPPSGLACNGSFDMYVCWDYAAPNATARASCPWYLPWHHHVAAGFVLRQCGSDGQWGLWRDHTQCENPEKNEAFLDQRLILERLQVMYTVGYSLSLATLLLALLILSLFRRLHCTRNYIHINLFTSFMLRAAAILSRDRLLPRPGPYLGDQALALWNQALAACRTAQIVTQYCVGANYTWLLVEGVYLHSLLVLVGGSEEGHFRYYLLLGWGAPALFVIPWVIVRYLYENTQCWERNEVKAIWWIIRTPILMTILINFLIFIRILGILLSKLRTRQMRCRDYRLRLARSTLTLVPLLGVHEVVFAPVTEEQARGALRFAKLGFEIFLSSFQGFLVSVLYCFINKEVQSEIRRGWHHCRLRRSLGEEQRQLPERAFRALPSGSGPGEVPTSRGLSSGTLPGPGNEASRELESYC


Columns and labels:
Test in all cases: cell-based or functional assay
[1] = biological target: human glucagon receptor (human, UniProt P47871 26-477)
[2] = biological target: T1, human GIP receptor
[3] = biological target: human GLP-1 receptor (human, UniProt P43220 24-463)

Chain of human glucagon receptor (P47871 26-477): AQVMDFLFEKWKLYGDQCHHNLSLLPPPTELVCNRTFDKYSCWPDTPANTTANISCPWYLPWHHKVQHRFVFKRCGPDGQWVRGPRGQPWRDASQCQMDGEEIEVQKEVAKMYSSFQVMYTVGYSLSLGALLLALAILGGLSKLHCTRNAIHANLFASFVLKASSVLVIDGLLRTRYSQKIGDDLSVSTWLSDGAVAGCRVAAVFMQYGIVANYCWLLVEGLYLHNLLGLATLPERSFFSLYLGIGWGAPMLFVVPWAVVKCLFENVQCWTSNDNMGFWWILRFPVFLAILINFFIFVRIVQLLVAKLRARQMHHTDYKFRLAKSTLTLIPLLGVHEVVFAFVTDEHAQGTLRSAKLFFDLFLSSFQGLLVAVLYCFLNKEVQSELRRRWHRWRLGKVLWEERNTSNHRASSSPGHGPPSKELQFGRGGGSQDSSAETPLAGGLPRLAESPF

Row | EC50, hGcg-R CRE Luc, 1% HSA (*) [1] [nM] | EC50, hGIP-R CRE Luc, 0.2% HSA [2] [nM] | EC50, hGLP-1-R CRE Luc, 1% HSA (*) [3] [nM] | EC50, hGcg-R CRE Luc, 0.2% HSA [1] [nM] | EC50, hGLP-1-R CRE Luc, 0.2% HSA [3] [nM] | Binder
1 | > 100 | 0.056 | > 100 | – | – | Y[Aib]EGTFISDYSIALDKIHQQDFVK([AEEA-AEEA-γGlu-C18 diacid])WLLAQKGKKNDWKHNITQ
2 | – | 0.00447 | – | > 100 | > 100 | Y[Aib]EGTFISDYSIA[Nle]DKIRQQDFVK([γGlu-γGlu-γGlu-C18 diacid])WLLAQKGKEEDWKHNITQ
3 | – | 0.0059 | – | > 100 | > 100 | Y[Aib]EGTFISDYSIA[Nle]DKIHQQDFVK([γGlu-γGlu-γGlu-C18 diacid])WLLAQKGKEDDWKHNITQ
